{"source": "patent US20140030731", "proteins": {"B1": {"name": "endogenous human ROCKII, Ser^1366 phosphorylated (HEK-293T cell extracts; human breast tumor tissue) (protein)", "chain": "MSRPPPTGKMPGAPETAPGDGAGASRQRKLEALIRDPRSPINVESLLDGLNSLVLDLDFPALRKNKNIDNFLNRYEKIVKKIRGLQMKAEDYDVVKVIGRGAFGEVQLVRHKASQKVYAMKLLSKFEMIKRSDSAFFWEERDIMAFANSPWVVQLFYAFQDDRYLYMVMEYMPGGDLVNLMSNYDVPEKWAKFYTAEVVLALDAIHSMGLIHRDVKPDNMLLDKHGHLKLADFGTCMKMDETGMVHCDTAVGTPDYISPEVLKSQGGDGFYGRECDWWSVGVFLYEMLVGDTPFYADSLVGTYSKIMDHKNSLCFPEDAEISKHAKNLICAFLTDREVRLGRNGVEEIRQHPFFKNDQWHWDNIRETAAPVVPELSSDIDSSNFDDIEDDKGDVETFPIPKAFVGNQLPFIGFTYYRENLLLSDSPSCRETDSIQSRKNEESQEIQKKLYTLEEHLSNEMQAKEELEQKCKSVNTRLEKTAKELEEEITLRKSVESALRQLEREKALLQHKNAEYQRKADHEADKKRNLENDVNSLKDQLEDLKKRNQNSQISTEKVNQLQRQLDETNALLRTESDTAARLRKTQAESSKQIQQLESNNRDLQDKNCLLETAKLKLEKEFINLQSALESERRDRTHGSEIINDLQGRICGLEEDLKNGKILLAKVELEKRQLQERFTDLEKEKSNMEIDMTYQLKVIQQSLEQEEAEHKATKARLADKNKIYESIEEAKSEAMKEMEKKLLEERTLKQKVENLLLEAEKRCSLLDCDLKQSQQKINELLKQKDVLNEDVRNLTLKIEQETQKRCLTQNDLKMQTQQVNTLKMSEKQLKQENNHLMEMKMNLEKQNAELRKERQDADGQMKELQDQLEAEQYFSTLYKTQVRELKEECEEKTKLGKELQQKKQELQDERDSLAAQLEITLTKADSEQLARSIAEEQYSDLEKEKIMKELEIKEMMARHKQELTEKDATIASLEETNRTLTSDVANLANEKEELNNKLKDVQEQLSRLKDEEISAAAIKAQFEKQLLTERTLKTQAVNKLAEIMNRKEPVKRGNDTDVRRKEKENRKLHMELKSEREKLTQQMIKYQKELNEMQAQIAEESQIRIELQMTLDSKDSDIEQLRSQLQALHIGLDSSSIGSGPGDAEADDGFPESRLEGWLSLPVRNNTKKFGWVKKYVIVSSKKILFYDSEQDKEQSNPYMVLDIDKLFHVRPVTQTDVYRADAKEIPRIFQILYANEGESKKEQEFPVEPVGEKSNYICHKGHEFIPTLYHFPTNCEACMKPLWHMFKPPPALECRRCHIKCHKDHMDKKEEIIAPCKVYYDISTAKNLLLLANSTEEQQKWVSRLVKKIPKKPPAPDPFARSSPRTSMKIQQNQSIRRPSRQLAPNKPS"}, "B2": {"name": "endogenous human ROCKI, Ser^1333 phosphorylated (HEK-293T cell extracts) (protein)", "chain": "STGDSFETRFEKMDNLLRDPKSEVNSDCLLDGLDALVYDLDFPALRKNKNIDNFLSRYKDTINKIRDLRMKAEDYEVVKVIGRGAFGEVQLVRHKSTRKVYAMKLLSKFEMIKRSDSAFFWEERDIMAFANSPWVVQLFYAFQDDRYLYMVMEYMPGGDLVNLMSNYDVPEKWARFYTAEVVLALDAIHSMGFIHRDVKPDNMLLDKSGHLKLADFGTCMKMNKEGMVRCDTAVGTPDYISPEVLKSQGGDGYYGRECDWWSVGVFLYEMLVGDTPFYADSLVGTYSKIMNHKNSLTFPDDNDISKEAKNLICAFLTDREVRLGRNGVEEIKRHLFFKNDQWAWETLRDTVAPVVPDLSSDIDTSNFDDLEEDKGEEETFPIPKAFVGNQLPFVGFTYYSNRRYLSSANPNDNRTSSNADKSLQESLQKTIYKLEEQLHNEMQLKDEMEQKCRTSNIKLDKIMKELDEEGNQRRNLESTVSQIEKEKMLLQHRINEYQRKAEQENEKRRNVENEVSTLKDQLEDLKKVSQNSQLANEKLSQLQKQLEEANDLLRTESDTAVRLRKSHTEMSKSISQLESLNRELQERNRILENSKSQTDKDYYQLQAILEAERRDRGHDSEMIGDLQARITSLQEEVKHLKHNLEKVEGERKEAQDMLNHSEKEKNNLEIDLNYKLKSLQQRLEQEVNEHKVTKARLTDKHQSIEEAKSVAMCEMEKKLKEEREAREKAENRVVQIEKQCSMLDVDLKQSQQKLEHLTGNKERMEDEVKNLTLQLEQESNKRLLLQNELKTQAFEADNLKGLEKQMKQEINTLLEAKRLLEFELAQLTKQYRGNEGQMRELQDQLEAEQYFSTLYKTQVKELKEEIEEKNRENLKKIQELQNEKETLATQLDLAETKAESEQLARGLLEEQYFELTQESKKAASRNRQEITDKDHTVSRLEEANSMLTKDIEILRRENEELTEKMKKAEEEYKLEKEEEISNLKAAFEKNINTERTLKTQAVNKLAEIMNRKDFKIDRKKANTQDLRKKEKENRKLQLELNQEREKFNQMVVKHQKELNDMQAQLVEECAHRNELQMQLASKESDIEQLRAKLLDLSDSTSVASFPSADETDGNLPESRIEGWLSVPNRGNIKRYGWKKQYVVVSSKKILFYNDEQDKEQSNPSMVLDIDKLFHVRPVTQGDVYRAETEEIPKIFQILYANEGECRKDVEMEPVQQAEKTNFQNHKGHEFIPTLYHFPANCDACAKPLWHVFKPPPALECRRCHVKCHRDHLDKKEDLICPCKVSYDVTSARDMLLLACSQDEQKKWVTHLVKKIPKNPPSGFVRASPRTLSTRSTANQSFRKVVKNTSGKTS"}}, "key": {"[1]": {"biological_target": "GFP-RhoAV14E40L (constitutively active mutant of RhoA defective in its interaction with ROCK), P61586", "sequence (P61586 other isoform, or with tags, fused parts or gaps mutant)": "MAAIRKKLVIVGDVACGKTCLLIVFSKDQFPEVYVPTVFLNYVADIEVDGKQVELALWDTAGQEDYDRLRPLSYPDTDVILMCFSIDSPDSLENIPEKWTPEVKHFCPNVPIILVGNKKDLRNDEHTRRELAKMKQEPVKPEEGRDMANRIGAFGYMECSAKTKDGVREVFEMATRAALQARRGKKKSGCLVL"}, "[2]": {"biological_target": "constitutively active GFP-RhoAV14, P61586", "sequence (P61586 other isoform, or with tags, fused parts or gaps)": "as the sequence (P61586 other isoform, or with tags, fused parts or gaps mutant) above, with L40E counted along it"}}}
{"protein": "B1", "values": [{"measurement": "level of ROCKII Ser^1366 phosphorylation (Western blotting with antibody-II, HEK-293T extracts)", "setting": "[1]", "value": "neither GFP-RhoAV14E40L nor GFP-RhoAN19 transfection shows no the enhancement of RCOKII Ser^1366 phosphorylation"}, {"measurement": "level of ROCK Ser^1366 phosphorylation (Western blotting with antibody-II, HEK-293T extracts)", "setting": "[2]", "value": "the level of ROCK Ser^1366 phosphorylation in the GFP-RhoAV14 expression cells was enhanced"}]}
{"protein": "B2", "values": [{"measurement": "level of ROCKI Ser^1333 phosphorylation (Western blotting with antibody-I, HEK-293T extracts)", "setting": "[2]", "value": "the changes on the level of ROCKI Ser^1333 phosphorylaion also indeed enhanced due to RhoA activation"}]}
